Where a chain is given by its changes, count along the chain named.

The target of experiment [1] is T1, canine PD-1 (on transfected CHO cells) (canine).
T1 construct: also called dPD-1
T1 chain: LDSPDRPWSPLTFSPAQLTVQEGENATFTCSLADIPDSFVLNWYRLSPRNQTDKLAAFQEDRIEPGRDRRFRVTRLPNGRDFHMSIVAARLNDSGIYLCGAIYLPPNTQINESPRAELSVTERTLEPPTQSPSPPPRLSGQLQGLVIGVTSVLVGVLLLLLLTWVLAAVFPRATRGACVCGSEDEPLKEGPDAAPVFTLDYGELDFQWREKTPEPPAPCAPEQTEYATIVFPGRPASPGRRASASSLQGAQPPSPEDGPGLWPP
Nature of the experiment: flow cytometry blocking assay on CHO cells transiently transfected with canine PD-1; antibody at 5 µg/mL; blocked ligand biotin-labeled dPD-L1 (5 µg/ml), detected with Streptavidin-PE. Here is the method: (§1) The anti-dPD-1 chimeric antibodies were collected from mouse ascites fluid and purified by chromatography. 25 μl CHO cells transiently transfected with canine PD-1 were added to each well in a plate. The purified antibodies were titrated to the desired final concentrations, and were added to each well at 25 μl per well at 4° C. and incubated for 30 minutes.
(§2) After being washed with phosphate-buffered saline (PBS) twice (1200 rpm, 5 minutes), 50 μl of PE-labeled Streptavidin (Streptavidin-PE) at 1:100 dilution was added into each well, and incubated for 30 minutes at 4° C., followed by PBS wash (1200 rpm, 5 minutes). 20 μl of PBS was added. The signals for PE was detected by flow cytometry (Intellicyt).
(A flow cytometer gives signals particle by particle.)

Experiment [2] concerns the target T1, canine PD-1 (on transfected CHO cells). Nature of the experiment: flow cytometry blocking assay on CHO cells transiently transfected with canine PD-1; antibody at 0.5 µg/mL; blocked ligand biotin-labeled dPD-L1 (5 µg/ml), detected with Streptavidin-PE. The protocol: as §1, §2
Experiment [3] has the same target. Nature of the experiment: flow cytometry blocking assay on CHO cells transiently transfected with canine PD-1; antibody at 0.05 µg/mL; blocked ligand biotin-labeled dPD-L1 (5 µg/ml), detected with Streptavidin-PE. The protocol:
as §1, §2

Experiment [4] has the same target. Nature of the experiment: flow cytometry blocking assay on CHO cells transiently transfected with canine PD-1; antibody at 0.005 µg/mL; blocked ligand biotin-labeled dPD-L1 (5 µg/ml), detected with Streptavidin-PE. Here is the method: as §1, §2
Experiment [5] has the same target. Nature of the experiment: flow cytometry (MFI) on CHO cells with canine PD-1. The protocol: 25 μl CHO cells were added to each well.
30 μl of PBS was then added.

The target of experiment [6] is T2, feline PD-1 (on transfected CHO cells) (feline).
T2 construct: Expressed from a vector that also expresses EGFP; also called cPD-1
T2 chain: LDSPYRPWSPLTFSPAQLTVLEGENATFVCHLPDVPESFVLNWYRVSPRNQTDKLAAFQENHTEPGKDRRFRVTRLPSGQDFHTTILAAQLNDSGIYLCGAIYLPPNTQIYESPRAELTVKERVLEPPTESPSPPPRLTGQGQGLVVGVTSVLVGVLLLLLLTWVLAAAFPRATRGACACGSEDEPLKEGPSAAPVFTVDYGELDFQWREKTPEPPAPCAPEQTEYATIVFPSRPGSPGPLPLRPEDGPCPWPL
Nature of the experiment: flow cytometry (MFI) on CHO cells with feline PD-1 and EGFP. The protocol:
In FIG. 9, the CHO cells were transfected with an expression vector that expresses feline PD-1 and EGFP. 25 μl purified anti-dPD-1 chimeric antibodies with different concentrations were added to each well. After being washed with PBS (1200 rmp, 5 min) twice, 50 μl of Alexa Fluor 647 labeled anti-dog IgG Fc antibody (anti-dIgG Fc-647) was added into each well at 1:500 dilution, followed by incubating at 4° C. for 30 minutes, and then PBS wash (1200 rmp, 5 min). 30 μl of PBS was then added. […] EC50 were also determined from the data.

The target in experiment [7] is T3, human PD-1 (on transfected CHO cells) (human, UniProt Q15116 25-288).
T3 construct: also called hPD-1
T3 sequence (Q15116 25-288 limits assumed): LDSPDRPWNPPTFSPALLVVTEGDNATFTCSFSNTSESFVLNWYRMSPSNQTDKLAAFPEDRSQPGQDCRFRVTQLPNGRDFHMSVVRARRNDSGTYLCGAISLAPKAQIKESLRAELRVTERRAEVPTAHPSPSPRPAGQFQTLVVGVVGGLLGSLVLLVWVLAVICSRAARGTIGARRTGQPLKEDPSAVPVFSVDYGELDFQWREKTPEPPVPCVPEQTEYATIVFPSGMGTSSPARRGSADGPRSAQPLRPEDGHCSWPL
Nature of the experiment: flow cytometry on CHO-hPD-1 cells; Anti-dog-IgG Fc-FITC (1:100). Here is the method:
After being washed with PBS (1200 rmp, 5 min) twice, FITC labeled anti-dog IgG Fc antibody (anti-dIgG Fc-FITC) was added into each well 1:100 dilution, followed by incubating at 4° C. for 30 minutes, and then PBS wash (1200 rmp, 5 min). The signals for FITC were determined by flow cytometry.

B1: 1B9-mHvKv-dIgG4 (antibody, V domains shown)
VH: QVQLQQPGAELVRPGASVKLSCKASGYTFTSFWMNWVKLRPEQGLEWIGRVDPYDSETHYNQKFKDKAILTVDKSSSTAYMQLSSLTSEDSAVYYCATQFGFSWLAYWGQGTLVTVSA
VL: not shown
notes: also called 1B9-mHvKv-IgG4; 1B9-mHvKv-dlgG4
For B1, the “percent of cells in the dPD-L1-positive (PE) gate” value (from here on “percent of cells”) in experiment [1] stood at 0.504%; in experiment [2], 4.4%; in experiment [3], 47%; in experiment [4] it was 45.1%.

B2: 4A7-mHvKv-dIgG4 (antibody, V domains shown)
VH: EVQLVESGGDLVKPGGSLKLSCVASGFPFSNFGMSWVRQTPDKRLEWVATISSGSSYSYYSDSVKGRFTISRDNAKNTLFLQMNSLKSEDTAIFYCARGESRFAYWGQGTLVTVSA
VL: DVVITQDELSNPVTSGESVSISCRSNKSLLYEDGQTYLNWFLQRPGQSPQLLIYLMSTRASGVSDRFSGSGSGTDFTLEISEVRAEDVGVYYCQQLIEYPLTFGAGTKLELKR
notes: also called 4A7-mHvKv-IgG4; 4A7-mHvKv-dlgG4
Broadly, the EC50 is the concentration that produces a half-maximal response. On to B2, for which the EC50 in experiment [5] was determined as 4.81 nM; in experiment [6], 1.53 nM. In addition, the “percent of cells” value was 3.37% in experiment [1], 1.7% in experiment [2], 27.1% in experiment [3] and 34.1% in experiment [4].

B3: 1D8-mHvKv-dIgG4 (antibody, V domains shown)
VH: B2 VH with V23A, P28T, S30N, T40N, I51L, S58T, F80Y, I93M, F94Y, A97T
VL: B2 VL with D1G, N26S, E32K, Q35K, E82R, R84K
notes: also called 1D8-mHvKv-IgG4; 1D8-mHvKv-dlgG4
B3: in experiment [6], the concentration for a half-maximal effect (EC50) is 7.29 nM. Besides, in experiment [7], the binding result is reported as “no binding (tested: 10 µg/ml)”. In addition, the “percent of cells” value in experiment [1] was 4.38%; in experiment [2] it was 0.161%; in experiment [3], 18.8%; in experiment [4] it was 39.2%.

Source of the values: patent publication US20220324978A1 (BIOCYTOGEN PHARMACEUTICALS BEIJING, published 2022).
